From patent US20100261620A1 (published 2010)

T1: human CD147 His-tagged N-terminal domain (human, UniProt P35613-2 20-117)
T1 construct: also called N-terminal human CD147; EMMPRIN; not shown: His tag
T1 chain: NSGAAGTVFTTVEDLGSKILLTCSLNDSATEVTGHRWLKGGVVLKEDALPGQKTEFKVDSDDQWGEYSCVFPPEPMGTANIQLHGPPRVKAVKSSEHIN


Legend:
[1] = molecular target: IL-13 (Homo sapiens (Human), UniProt P35225 35-146, limits assumed); assay: Biacore
[2] = molecular target: T1, human CD147 His-tagged N-terminal domain; assay: SPR, CD147 coupled to the surface

Sequence of IL-13 (P35225 35-146 limits assumed): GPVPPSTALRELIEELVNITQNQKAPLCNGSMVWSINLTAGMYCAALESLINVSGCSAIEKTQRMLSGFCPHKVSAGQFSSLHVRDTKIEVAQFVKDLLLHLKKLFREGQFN

Binder	Kd [1] [nM]	koff [1] [s⁻¹]	kon [1] [M⁻¹ s⁻¹]	Kd [2] [nM]
M1286 (antibody, V domains shown) VH: QVTLKESGPVLVKPTETLTLTCTVSGFSLSTYGSGVGWIRQPPGKALEWLAHIWWDDVKRYNPALKSRLTISKDTSKSQVVLTMTNMDPVDTATYYCARLGSDYDVWFDYWGQGTLVTVSS VL: EIVLTQSPATLSLSPGERATLSCRASKSISKYLAWYQQKPGQAPRLLIYSGSTLQSGIPARFSGSGSGTDFTLTISSLEPEDFAVYYCQQHDYPYTFGQGTKLEIK	0.009	1.2e-05	1.28e+06	–
M1295 (antibody, V domains shown) VH: QVTLKESGPVLVKPTETLTLTCTVSGFSLSTYGVGVGWIRQPPGKALEWLAHIWWDDVKRYNPALKSRLTISKDTSKSQVVLTMTNMDPVDTATYYCARLGSDYDVWFDYWGQGTLVTVSS VL: EIVLTQSPATLSLSPGERATLSCRASKSISKYLAWYQQKPGQAPRLLIYSGSTLQSGIPARFSGSGSGTDFTLTISSLEPEDFAVYYCQQHDYPYTFGQGTKLEIK	0.015	1.8e-05	1.2e+06	–
M460 (anti-IL-13) (antibody, V domains shown) VH: QVTLKESGPVLVKPTETLTLTCTVSGFSLSTYGMGVGWIRQPPGKALEWLAHIWWDDVKRYNPALKSRLTISKDTSKSQVVLTMTNMDPVDTATYYCARMGSDYDVWFDYWGQGTLVTVSS VL: EIVLTQSPATLSLSPGERATLSCRASKSISKYLAWYQQKPGQAPRLLIYSGSTLQSGIPARFSGSGSGTDFTLTISSLEPEDFAVYYCQQHDYPYTFGQGTKLEIK	0.008	8e-06	1.03e+06	–
M442 (antibody, V domains shown) VH: QVTLKESGPVLVKPTETLTLTCTVSGFSLSTYGMGVGWIRQPPGKALEWLAHIWWDDVKRYNPALKSRLTISKDTSKSQVVLTMTNMDPVDTATYYCARMGSDYDVWFDYWGQGTLVTVSS VL: EIVLTQSPATLSLSPGERATLSCRASKSISKYLAWYQQKPGQAPRLLIYSGSTLQSGIPARFSGSGSGTDFTLTISSLEPEDFAVYYCQQQDGPYTFGQGTKLEIK	0.04	5.3e-05	1.32e+06	–
M480 (antibody, V domains shown) VH: QVTLKESGPVLVKPTETLTLTCTVSGFSLSTYGMGVGWIRQPPGKALEWLAHIWWDDVKRYNPALKSRLTISKDTSKSQVVLTMTNMDPVDTATYYCARMGSDYDVWFDYWGQGTLVTVSS VL: EIVLTQSPATLSLSPGERATLSCRASKSISKYLAWYQQKPGQAPRLLIYSGSTLQSGIPARFSGSGSGTDFTLTISSLEPEDFAVYYCQQQDSPYTFGQGTKLEIK	0.021	3.9e-05	1.86e+06	–
M1375 (antibody, V domains shown) VH: QVTLKESGPVLVKPTETLTLTCTVSGFSLSTYGQGVGWIRQPPGKALEWLAHIWWDDVKRYNPALKSRLTISKDTSKSQVVLTMTNMDPVDTATYYCARLGSDYDVWFDYWGQGTLVTVSS VL: EIVLTQSPATLSLSPGERATLSCRASKSISKYLAWYQQKPGQAPRLLIYSGSTLQSGIPARFSGSGSGTDFTLTISSLEPEDFAVYYCQQHDYPYTFGQGTKLEIK	0.024	2.7e-05	1.1e+06	–
4A5 Fab (Fab, V domains shown, mouse variable domains; also called 4A5 chimera; chimeric 4A5 Fab) VH: EVQLQQSGPELVKPGASVKISCKASGYTFTDYYMNWVKQSHGKSLEWIGGINPNNGGTSYNQKFKGKATLTVDKSSSTAYMELRSLTSEDSAVYYCARNDGYRGYAMDYWGQGTSVTVSS VL: not shown	–	–	–	120
